Three molecules from US20100173430A1 (KOREAN RESEARCH INSTITUTE OF BIOSCIENCE AND BIOTECHNOLOGY, published 2010) can be followed below.

Sequences and labels used below:
B1: Streptococcal protein G variant tagged with three cysteine residues at the N-terminus (other)
chain: MCCCDDDDKLKGETTTEAVDAATAEKVFKQYANDNGVDGEWTYDDATKTFTVTETYKLVIDGKTLKGETTTKAVDAETAEKAFKQYADDDGVDGVWTYDDATKTFTVTEHHHHHH
notes: Immobilised by its thiol groups on gold film, gold nano-particles or maleimide glass; also called cys3-G; protein produced from plasmid pET-cys3-L-proteinG
B2: Streptococcal protein G variant tagged with two cysteine residues at the N-terminus (other)
chain: MCCDDDDKLKGETTTEAVDAATAEKVFKQYANDNGVDGEWTYDDATKTFTVTETYKLVIDGKTLKGETTTKAVDAETAEKAFKQYADDDGVDGVWTYDDATKTFTVTEHHHHHH
notes: Immobilised by its thiol groups on gold film, gold nano-particles or maleimide glass; also called cys2-G; protein produced from plasmid pET-cys2-L-proteinG
B3: Streptococcal protein G variant tagged with one cysteine residue at the N-terminus (other)
chain: MCDDDDKLKGETTTEAVDAATAEKVFKQYANDNGVDGEWTYDDATKTFTVTETYKLVIDGKTLKGETTTKAVDAETAEKAFKQYADDDGVDGVWTYDDATKTFTVTEHHHHHH
notes: Immobilised by its thiol group on gold film, gold nano-particles or maleimide glass; also called cys1-G; protein produced from plasmid pET-cys1-L-proteinG

For one experiment, the target named is T1, streptavidin-Cy3 from Streptomyces avidinii (S6420 SIGMA-ALDRICH) (Streptomyces avidinii, UniProt P22629 37-163, limits assumed, Cy3 label).
T1 construct: Control protein of the microarray experiment; also called control
The experiment is described as follows: microarray on maleimide glass carrying the protein G variant, fluorescence scanner. The protocol:
A glass surface was immersed in a piranha solution (sulfuric acid:hydrogen peroxide, 3:1 v/v) and allowed to react in an oven at 90° C. for 20 minutes. After the reaction, the glass surface was washed with water and ethanol, and then was immersed in ethanol containing 1% APTS ((3-Aminopropyl)trimethoxysilane, 09326, SIGMA-ALDRICH) for 15 to 20 minutes to react, so as to provide an aminated surface. After completion of the reaction, the glass surface was washed with ethanol, and subsequently heated in an oven at 100° C. until the time of use. The prepared aminated surface was immersed in a 10 mM solution of BMPS (N-[b-Maleimidopropyloxy]succinimide ester, 22298, PIERCE, USA) dissolved in DMSO (dimethyl sulfoxide, D2650, SIGMA-ALDRICH) to react for about 30 minutes. The maleimide groups provided on the final glass surface, which groups would be covalently bonded to SH groups, were reacted with Streptococcal protein G variants tagged with one, two or three cysteine residues on the glass surface to immobilize the protein. On the surface where a series of Streptococcal protein G variants were immobilized, an antibody labeled with a fluorescent labeling substance, monoclonal anti-biotin Cy3 (C5585, SIGMA-ALDRICH), and a control, streptavidin-Cy3 (streptavidin-Cy3 from Streptomyces avidinii, S6420 SIGMA-ALDRICH) were arranged into an array using a microarrayer, and then the degree of specific protein binding and the effect of non-specific binding were measured using a fluorescence scanner. As a result, no fluorescent signal of Streptavidin-Cy3 (1 mg/ml) was detected, and since the fluorescent signal increased with an increase in the concentration of the antibody, Monoclonal anti-biotin Cy3, it was confirmed that the antibody reactions with Streptococcal protein G variants tagged with one, two and three cysteine residues were specifically achieved. Also, when the antibody was reacted after allowing the Streptococcal protein G variants to react at the same concentration, the reaction occurred at a low concentration of the antibody with a high binding power. […]
In the case of B1, the binding result is on record as “no binding (tested: 1 mg/ml)”.
Turning to B2, the binding result is on record as “no binding (tested: 1 mg/ml)”.
Turning to B3, the binding result is listed as “no binding (tested: 1 mg/ml)”.

The target of a further experiment is T2, human IgG (Sigma) (human).
T2 construct: also called human antibody; antibody (100 µg/ml, human IgG, Sigma)
The experiment is described as follows: SPR (BIAcore); protein G variant layer on gold thin film, human IgG 100 ug/ml injected. The method, then:
A gold thin film chip was treated with a mixed solution (65° C.) of 95% sulfuric acid and 30% aqueous hydrogen peroxide (volume ratio 3:1) for 30 minutes, and then the chip was washed sequentially with double distilled water, ethanol and double distilled water. Subsequently, the chip was dried with nitrogen gas and mounted on a BIA-core surface plasmon resonance sensor. 150 μl each of 200 μg/ml solutions of recombinant proteins tagged with one, two and three cysteine residues, respectively, and of an untagged recombinant protein were introduced to the gold thin film surface of the mounted chip at a flow rate of 5 μl/min, so as to immobilize the proteins. After reacting the gold thin film surface and the aforementioned proteins, 100 μl of BSA (3 mg/ml) was introduced at a flow rate of 5 μl/min to prevent non-specific reactions. Subsequently, 100 μl of an antibody (100 μg/ml, human IgG, Sigma) was introduced at a flow rate of 5 μl/min to produce a biosensor in which protein G variant and the antibody were immobilized on a gold thin film, and the changes in the plasmon resonance signals were measured (FIG. 5).
As for B1, the “change in surface plasmon resonance signal” value amounted to 4800 RU and the “fold increase of SPR signal change against the untagged recombinant protein” value (from here on “fold increase of SPR signal change”) was around 4.8 times.
For the molecule B2, the “change in surface plasmon resonance signal” value came to 3200 RU and the “fold increase of SPR signal change” value was around 3.2 times.
In the case of B3, the “change in surface plasmon resonance signal” value was found to be 4000 RU and the “fold increase of SPR signal change” value is around 4 times.

The next experiment has as its target T3, anti-human Kallikrein 3/PSA antibody (R&D systems).
T3 construct: also called antibody against PSA
The experiment is described as follows: SPR (BIAcore); protein G variant layer on gold thin film, anti-PSA antibody 0.5 ug/ml injected. The method, then:
Then, antigens (Recombinant Human kallikrein 3/PSA, 0.5 μg/ml) were reacted with the antibodies. As a result, the change in the surface plasmon resonance signals of the untagged recombinant protein increased by 7 RU, the same change of the recombinant protein tagged with one cysteine residue increased by 49 RU, the same change of the recombinant protein tagged with two cysteine residues increased by 41 RU, and the same change of the recombinant protein tagged with three cysteine residues increased by 74 RU.
A gold thin film chip was treated with a mixed solution (65° C.) of 95% sulfuric acid and 30% aqueous hydrogen peroxide (volume ratio 3:1) for 30 minutes, and then the chip was washed sequentially with double distilled water, ethanol and double distilled water. Subsequently, the chip was dried with nitrogen gas and mounted on a BIA-core surface plasmon resonance sensor. 150 μl each of 200 μg/ml solutions of recombinant proteins tagged with one, two and three cysteine residues, respectively, and of an untagged recombinant protein (control) were introduced to the gold thin film surface of the mounted chip at a flow rate of 5 μl/min, so as to immobilize the proteins. After reacting the gold thin film surface and the aforementioned proteins, 100 μl of BSA (3 mg/ml) was introduced at a flow rate of 5 μl/min to prevent non-specific reactions. Subsequently, 100 μl of an antibody (0.5 μg/ml, anti-human Kallikrein 3/PSA antibody, R&D systems) was introduced at a flow rate of 5 μl/min, and the biosensor with immobilized antibody and 50 μl of an antigen (0.5 μg/ml, Recombinant Human Kallikrein 3/PSA) were allowed to react. Then, changes in the plasmon resonance signal was detected (FIG. 8).
In general terms: Surface plasmon resonance follows binding to a sensor surface in real time, without labels.
Regarding B1, the “change in surface plasmon resonance signal” value turned out to be 491 RU.
On to B2, for which the “change in surface plasmon resonance signal” value worked out at 376 RU.
As for B3, the “change in surface plasmon resonance signal” value was found to be 472 RU.
